Measurements: the supplement of paper PMC10065799, “High-throughput profiling of sequence recognition by tyrosine kinases and SH2 domains using bacterial peptide display” (eLife, 2023)

Legend:
c-Src SH2 = assay: SH2 binding enrichment of the phosphorylated peptide, bacterial display (enrichment ratio); higher = better substrate or ligand; peptides without Tyr show the background
SHP2-C SH2 = assay: as above
Grb2 SH2 = Grb2 SH2 (UniProt P62993); assay: as above
Fer (mouse) = assay: phosphorylation enrichment, bacterial display (enrichment ratio); higher = better substrate or ligand; peptides without Tyr show the background
EPHB2 = EPHB2 (UniProt P29323); assay: as above
MERTK = MERTK (UniProt Q12866); assay: as above
Fyn = Fyn (UniProt P06241); assay: as above
Hck = Hck (UniProt P08631); assay: as above
FGFR3 = FGFR3 (UniProt P22607); assay: as above
c-Src = assay: as above
AncSZ = assay: as above
Jak2 = Jak2 (UniProt O60674); assay: as above
EPHB1 = EPHB1 (UniProt P54762); assay: as above
FGFR1 = FGFR1 (UniProt P11362); assay: as above
Fes = Fes (UniProt P07332); assay: as above
c-Abl (mouse) = assay: as above
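Throughout, for SH2 binding enrichment of the phosphorylated peptide, bacterial display: peptide library displayed on the E. coli surface as eCPX fusions, selected cells deep-sequenced, score is each peptide's frequency after selection divided by its frequency in the input.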
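Throughout, for phosphorylation enrichment, bacterial display: 11-residue human phosphosite peptides and single-mutation variants displayed on the E. coli surface, counted by deep sequencing, each peptide's frequency after selection divided by its frequency in the unselected input library; frequency after pTyr selection over input frequency; kinase dosed for 20-30% of maximal phosphorylation in three min.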

Sequence of EPHB2 (P29323 whole entry, looked up): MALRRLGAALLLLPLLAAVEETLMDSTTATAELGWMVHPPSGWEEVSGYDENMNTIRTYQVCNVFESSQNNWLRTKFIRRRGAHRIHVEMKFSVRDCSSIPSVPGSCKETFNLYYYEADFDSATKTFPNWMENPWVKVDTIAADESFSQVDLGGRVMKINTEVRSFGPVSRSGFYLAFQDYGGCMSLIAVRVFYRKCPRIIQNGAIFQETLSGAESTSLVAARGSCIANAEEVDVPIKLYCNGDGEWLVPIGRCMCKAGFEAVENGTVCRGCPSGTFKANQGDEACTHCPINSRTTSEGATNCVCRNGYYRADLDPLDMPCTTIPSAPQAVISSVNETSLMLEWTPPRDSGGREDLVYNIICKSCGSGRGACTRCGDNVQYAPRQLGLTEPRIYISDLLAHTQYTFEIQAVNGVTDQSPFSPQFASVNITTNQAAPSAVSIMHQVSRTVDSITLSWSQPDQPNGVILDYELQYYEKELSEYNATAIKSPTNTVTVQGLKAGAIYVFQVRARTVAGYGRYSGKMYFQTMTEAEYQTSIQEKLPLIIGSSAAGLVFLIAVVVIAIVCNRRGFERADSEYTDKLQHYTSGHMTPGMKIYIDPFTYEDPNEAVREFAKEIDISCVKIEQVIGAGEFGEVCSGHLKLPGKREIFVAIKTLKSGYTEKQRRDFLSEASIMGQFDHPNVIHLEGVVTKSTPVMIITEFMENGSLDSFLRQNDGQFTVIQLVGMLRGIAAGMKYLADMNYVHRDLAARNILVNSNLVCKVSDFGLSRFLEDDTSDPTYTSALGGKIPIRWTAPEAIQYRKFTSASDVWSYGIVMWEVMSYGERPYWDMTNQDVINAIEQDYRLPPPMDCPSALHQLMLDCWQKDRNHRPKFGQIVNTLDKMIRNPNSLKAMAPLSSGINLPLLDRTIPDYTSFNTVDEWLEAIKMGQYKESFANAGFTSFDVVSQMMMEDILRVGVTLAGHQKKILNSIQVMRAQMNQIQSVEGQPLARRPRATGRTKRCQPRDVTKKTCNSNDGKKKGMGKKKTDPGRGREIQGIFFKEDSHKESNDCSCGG
Sequence of Fyn (P06241 whole entry, looked up): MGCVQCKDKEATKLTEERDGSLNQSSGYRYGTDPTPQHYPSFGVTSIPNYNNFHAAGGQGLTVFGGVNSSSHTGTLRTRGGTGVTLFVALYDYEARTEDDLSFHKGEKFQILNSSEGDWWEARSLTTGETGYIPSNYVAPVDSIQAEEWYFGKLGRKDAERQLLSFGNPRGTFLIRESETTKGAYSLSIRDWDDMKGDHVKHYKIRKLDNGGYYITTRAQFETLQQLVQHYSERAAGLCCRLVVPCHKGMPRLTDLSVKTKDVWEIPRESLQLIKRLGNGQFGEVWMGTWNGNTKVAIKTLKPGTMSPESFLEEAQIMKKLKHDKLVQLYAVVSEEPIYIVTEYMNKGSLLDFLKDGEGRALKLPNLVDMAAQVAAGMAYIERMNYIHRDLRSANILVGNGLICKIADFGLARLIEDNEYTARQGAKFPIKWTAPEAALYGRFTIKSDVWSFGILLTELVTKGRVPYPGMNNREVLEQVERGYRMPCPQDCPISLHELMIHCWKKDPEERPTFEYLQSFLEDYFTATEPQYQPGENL
Sequence of FGFR1 (P11362 whole entry, looked up): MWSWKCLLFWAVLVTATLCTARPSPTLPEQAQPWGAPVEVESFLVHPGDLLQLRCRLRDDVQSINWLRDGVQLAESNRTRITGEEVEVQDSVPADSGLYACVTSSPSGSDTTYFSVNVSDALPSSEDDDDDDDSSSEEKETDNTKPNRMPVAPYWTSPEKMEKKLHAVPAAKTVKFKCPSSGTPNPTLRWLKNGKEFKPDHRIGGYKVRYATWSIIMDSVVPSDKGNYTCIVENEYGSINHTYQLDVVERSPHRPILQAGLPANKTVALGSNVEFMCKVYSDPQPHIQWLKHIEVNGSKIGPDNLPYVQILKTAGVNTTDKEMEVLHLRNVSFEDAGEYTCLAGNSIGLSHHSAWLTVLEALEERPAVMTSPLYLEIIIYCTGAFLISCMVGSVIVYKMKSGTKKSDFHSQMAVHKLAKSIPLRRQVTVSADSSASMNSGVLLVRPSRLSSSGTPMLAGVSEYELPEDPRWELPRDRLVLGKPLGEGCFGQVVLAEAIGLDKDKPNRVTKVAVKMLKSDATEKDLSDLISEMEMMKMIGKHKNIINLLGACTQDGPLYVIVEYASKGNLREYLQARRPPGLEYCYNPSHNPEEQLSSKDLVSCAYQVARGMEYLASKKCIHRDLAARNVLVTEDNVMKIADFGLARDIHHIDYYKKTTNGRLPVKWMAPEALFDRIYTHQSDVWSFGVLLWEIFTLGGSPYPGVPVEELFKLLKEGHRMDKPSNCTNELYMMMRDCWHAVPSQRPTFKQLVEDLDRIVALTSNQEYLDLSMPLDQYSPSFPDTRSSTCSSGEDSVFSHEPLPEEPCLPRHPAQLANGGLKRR
Sequence of Fes (P07332 whole entry, looked up): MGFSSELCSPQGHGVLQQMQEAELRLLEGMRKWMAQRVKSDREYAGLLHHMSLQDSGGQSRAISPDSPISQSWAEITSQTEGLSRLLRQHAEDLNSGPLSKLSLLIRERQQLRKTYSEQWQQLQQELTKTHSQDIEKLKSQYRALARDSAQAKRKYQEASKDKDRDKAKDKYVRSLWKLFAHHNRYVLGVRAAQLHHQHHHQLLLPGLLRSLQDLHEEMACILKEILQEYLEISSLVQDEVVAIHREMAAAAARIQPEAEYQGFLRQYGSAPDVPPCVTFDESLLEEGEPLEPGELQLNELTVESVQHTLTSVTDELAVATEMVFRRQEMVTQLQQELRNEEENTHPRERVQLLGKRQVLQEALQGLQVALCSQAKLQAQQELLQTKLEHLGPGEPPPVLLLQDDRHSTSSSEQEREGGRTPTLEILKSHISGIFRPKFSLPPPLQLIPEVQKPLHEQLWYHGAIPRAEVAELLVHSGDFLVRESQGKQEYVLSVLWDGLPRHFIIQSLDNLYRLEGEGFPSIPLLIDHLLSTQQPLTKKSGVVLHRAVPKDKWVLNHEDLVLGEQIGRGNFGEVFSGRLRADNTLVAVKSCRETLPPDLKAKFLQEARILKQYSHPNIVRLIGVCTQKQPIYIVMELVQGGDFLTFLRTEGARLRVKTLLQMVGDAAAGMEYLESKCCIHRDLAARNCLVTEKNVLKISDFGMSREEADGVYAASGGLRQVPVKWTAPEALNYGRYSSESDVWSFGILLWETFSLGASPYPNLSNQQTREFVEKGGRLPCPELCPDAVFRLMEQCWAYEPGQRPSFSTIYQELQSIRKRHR
Sequence of FGFR3 (P22607 whole entry, looked up): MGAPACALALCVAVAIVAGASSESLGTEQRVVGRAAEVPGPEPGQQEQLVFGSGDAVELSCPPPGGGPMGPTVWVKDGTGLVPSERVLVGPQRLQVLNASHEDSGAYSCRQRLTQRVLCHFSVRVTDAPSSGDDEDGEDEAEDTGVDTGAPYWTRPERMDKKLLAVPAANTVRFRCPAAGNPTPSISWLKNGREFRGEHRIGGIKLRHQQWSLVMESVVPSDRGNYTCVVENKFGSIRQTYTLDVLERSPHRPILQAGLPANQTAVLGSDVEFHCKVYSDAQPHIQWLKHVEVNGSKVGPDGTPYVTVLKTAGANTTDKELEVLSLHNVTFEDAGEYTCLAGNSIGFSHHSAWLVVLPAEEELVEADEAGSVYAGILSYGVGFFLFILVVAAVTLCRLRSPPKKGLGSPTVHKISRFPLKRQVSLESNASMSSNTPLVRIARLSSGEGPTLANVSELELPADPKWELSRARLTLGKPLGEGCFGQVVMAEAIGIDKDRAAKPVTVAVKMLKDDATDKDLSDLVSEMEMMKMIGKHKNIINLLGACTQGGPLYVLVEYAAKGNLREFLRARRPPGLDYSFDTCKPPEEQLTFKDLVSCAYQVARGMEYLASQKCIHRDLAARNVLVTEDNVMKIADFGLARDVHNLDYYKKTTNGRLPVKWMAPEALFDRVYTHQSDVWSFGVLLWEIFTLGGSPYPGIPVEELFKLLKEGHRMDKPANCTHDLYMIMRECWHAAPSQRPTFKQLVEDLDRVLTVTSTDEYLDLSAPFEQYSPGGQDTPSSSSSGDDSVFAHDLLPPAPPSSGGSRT
Sequence of EPHB1 (P54762 whole entry, looked up): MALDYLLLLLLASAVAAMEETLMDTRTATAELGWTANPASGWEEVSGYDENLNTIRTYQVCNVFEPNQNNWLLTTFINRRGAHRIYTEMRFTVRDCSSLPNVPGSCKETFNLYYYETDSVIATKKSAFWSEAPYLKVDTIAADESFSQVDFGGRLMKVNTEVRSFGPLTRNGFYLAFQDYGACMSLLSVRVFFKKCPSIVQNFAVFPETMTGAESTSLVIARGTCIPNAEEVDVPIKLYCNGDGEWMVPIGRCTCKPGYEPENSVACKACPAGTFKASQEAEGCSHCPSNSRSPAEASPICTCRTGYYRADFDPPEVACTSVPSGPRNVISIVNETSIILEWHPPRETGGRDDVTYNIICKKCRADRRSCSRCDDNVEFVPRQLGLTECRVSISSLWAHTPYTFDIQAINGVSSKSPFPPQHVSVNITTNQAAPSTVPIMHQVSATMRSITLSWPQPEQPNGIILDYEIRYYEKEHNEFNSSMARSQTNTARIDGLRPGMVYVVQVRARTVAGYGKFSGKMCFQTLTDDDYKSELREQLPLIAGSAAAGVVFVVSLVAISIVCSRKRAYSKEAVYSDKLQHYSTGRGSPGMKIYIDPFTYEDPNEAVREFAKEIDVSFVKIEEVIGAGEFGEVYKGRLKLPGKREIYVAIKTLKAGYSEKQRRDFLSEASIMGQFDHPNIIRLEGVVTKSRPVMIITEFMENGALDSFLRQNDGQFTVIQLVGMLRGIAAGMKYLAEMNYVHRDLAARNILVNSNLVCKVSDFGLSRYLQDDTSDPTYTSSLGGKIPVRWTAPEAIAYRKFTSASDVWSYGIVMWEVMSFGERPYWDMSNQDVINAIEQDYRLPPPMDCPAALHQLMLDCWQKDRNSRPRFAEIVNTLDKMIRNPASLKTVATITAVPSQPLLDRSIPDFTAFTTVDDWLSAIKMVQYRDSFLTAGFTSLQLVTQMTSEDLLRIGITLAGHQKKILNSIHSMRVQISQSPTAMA

Row | Sequence | SH2 binding enrichment (c-Src SH2) | SH2 binding enrichment (SHP2-C SH2) | SH2 binding enrichment (Grb2 SH2) | phosphorylation enrichment (Fer (mouse)) | phosphorylation enrichment (EPHB2) | phosphorylation enrichment (MERTK) | phosphorylation enrichment (Fyn) | phosphorylation enrichment (Hck) | phosphorylation enrichment (FGFR3) | phosphorylation enrichment (c-Src) | phosphorylation enrichment (AncSZ) | phosphorylation enrichment (Jak2) | phosphorylation enrichment (EPHB1) | phosphorylation enrichment (FGFR1) | phosphorylation enrichment (Fes) | phosphorylation enrichment (c-Abl (mouse))
1 | HSVLNYGVCVC [JAK2_Y613_L609S] | 0.584 | 0.929 | 0.853 | 0.692 | 0.905 | 0.482 | 0.564 | 0.62 | 0.84 | 0.595 | 0.91 | 1.17 | 0.87 | 0.674 | 1.57 | 0.925
2 | HTLQLYRCREE [ALPK3_Y342] | 0.406 | 0.658 | 0.672 | 0.575 | 0.588 | 0.607 | 0.573 | 0.522 | 0.7 | 0.603 | 0.953 | 0.574 | 0.499 | 0.898 | 1.03 | 0.329
3 | IALNSYHSRNC [IFNGR1_Y397] | 0.534 | 0.814 | 0.917 | 0.347 | 0.492 | 0.469 | 0.417 | 0.469 | 0.525 | 0.4 | 0.584 | 0.521 | 0.383 | 0.464 | 0.715 | 0.599
4 | ICGVSYDEYRY [CFTR_Y512_F508C] | 1.77 | 0.681 | 0.751 | 0.599 | 0.704 | 0.463 | 0.637 | 0.633 | 1.01 | 1.11 | 1.46 | 1.26 | 0.733 | 0.478 | 1.58 | 0.943
5 | IDFARYWHGND [MMP11_Y162_D166N] | 0.525 | 0.708 | 0.807 | 0.423 | 0.486 | 0.372 | 0.431 | 0.479 | 0.551 | 0.345 | 0.918 | 0.564 | 0.556 | 0.508 | 0.835 | 0.504
6 | IFGVSYGEFRF [CFTR_Y512_D513G_YF] | 0.705 | 1.08 | 1.06 | 0.504 | 0.561 | 0.465 | 5.32 | 4.06 | 0.646 | 5.39 | 0.941 | 0.99 | 0.576 | 0.383 | 1.09 | 0.779
7 | IGEGTYRTVFK [CDK5_Y15_G16R] | 0.47 | 0.614 | 0.674 | 0.317 | 0.432 | 0.384 | 0.459 | 0.532 | 0.533 | 0.558 | 0.542 | 0.781 | 0.362 | 0.353 | 0.738 | 0.638
8 | IGEVVYQRAVM [GRIN2A_Y502] | 0.477 | 0.484 | 0.752 | 1.46 | 0.554 | 0.513 | 1.14 | 2.19 | 0.595 | 1.57 | 0.869 | 0.688 | 0.883 | 0.434 | 0.856 | 8.27
9 | IHETTHNSIMK [ACTA1_Y281_Y281H] | 0.43 | 0.537 | 0.736 | 0.347 | 0.349 | 0.38 | 0.43 | 0.463 | 0.39 | 0.262 | 0.452 | 0.471 | 0.304 | 0.425 | 0.469 | 0.401
10 | IHFAIYLLKFS [ARMC9_Y107_YF] | 1.13 | 1.45 | 1.69 | 0.303 | 0.457 | 0.414 | 0.458 | 0.521 | 0.684 | 0.499 | 0.891 | 1.03 | 0.561 | 0.363 | 1.06 | 0.668
11 | IHHIDYYKKTT [FGFR1_Y653] | 0.567 | 1.22 | 0.793 | 0.961 | 0.544 | 0.508 | 0.381 | 0.425 | 0.484 | 0.487 | 0.783 | 0.534 | 0.408 | 0.473 | 0.741 | 0.524
12 | IHRWVYPLTPE [EIF2B5_Y319_R315H] | 1.06 | 1.29 | 1.25 | 0.405 | 0.503 | 0.487 | 0.511 | 0.487 | 0.698 | 0.446 | 1.03 | 0.885 | 0.525 | 0.488 | 0.918 | 0.621
13 | IKKLIYVHLVI [JAGN1_Y42] | 0.631 | 0.775 | 1.1 | 0.592 | 0.59 | 0.569 | 0.496 | 0.671 | 0.842 | 0.424 | 1.02 | 0.982 | 0.669 | 0.604 | 1.32 | 0.852
14 | IKNSGYISRFL [EIF2AK3_Y585_YF] | 0.793 | 1.1 | 1.24 | 0.286 | 0.455 | 0.44 | 0.348 | 0.379 | 0.495 | 0.43 | 0.564 | 0.61 | 0.366 | 0.367 | 0.669 | 0.537
15 | IMAYFYMCDSA [CASD1_Y382_R386S] | 0.677 | 0.702 | 1.08 | 0.597 | 0.643 | 0.505 | 0.523 | 0.51 | 2.25 | 0.69 | 1.38 | 1.93 | 0.845 | 2.24 | 1.5 | 1.07
16 | INNKMYDPKMN [ENPP1_Y280_D276N] | 0.442 | 0.69 | 0.707 | 0.482 | 0.432 | 0.354 | 0.397 | 0.436 | 0.491 | 0.449 | 0.535 | 0.556 | 0.44 | 0.389 | 0.609 | 0.473
17 | IQKWEYVPLGT [FAH_Y244_P249T] | 0.817 | 0.497 | 0.837 | 0.416 | 0.532 | 0.328 | 0.475 | 0.428 | 0.723 | 0.384 | 0.954 | 1.23 | 0.768 | 1.06 | 0.866 | 0.564
18 | IRRIAYEFVEM [ADA_Y84_K80R] | 1.15 | 0.435 | 0.542 | 2.85 | 0.543 | 0.469 | 0.417 | 0.433 | 0.511 | 0.458 | 0.887 | 0.638 | 0.343 | 0.869 | 0.872 | 0.489

Further lines, with some results ahead:

Row | SH2 binding enrichment (c-Src SH2) | SH2 binding enrichment (SHP2-C SH2) | SH2 binding enrichment (Grb2 SH2) | Sequence | phosphorylation enrichment (Fer (mouse)) | phosphorylation enrichment (EPHB2) | phosphorylation enrichment (MERTK) | phosphorylation enrichment (Fyn) | phosphorylation enrichment (Hck) | phosphorylation enrichment (FGFR3) | phosphorylation enrichment (c-Src) | phosphorylation enrichment (AncSZ) | phosphorylation enrichment (Jak2) | phosphorylation enrichment (EPHB1) | phosphorylation enrichment (FGFR1) | phosphorylation enrichment (Fes) | phosphorylation enrichment (c-Abl (mouse))
19 | 0.556 | 0.819 | 1.13 | HRGFLYLAIEF [TEK_Y899_Y897F_YF] | 0.968 | 0.539 | 0.711 | 0.352 | 0.627 | 1.02 | 0.687 | 1.49 | 1.7 | 0.765 | 0.515 | 1.67 | 1.52
20 | 5.39 | 9.46 | 1.21 | HSPLRYTSILT [OR51B6_Y130_R125H] | 0.892 | 0.602 | 0.634 | 0.823 | 0.683 | 0.849 | 0.574 | 0.915 | 0.807 | 0.782 | 1.19 | 1.4 | 0.547
21 | 0.853 | 0.856 | 0.976 | IFHLSYIHNCE [PDE6B_Y227_L228I_YF] | 0.526 | 0.71 | 0.392 | 0.494 | 0.577 | 0.91 | 0.352 | 1.16 | 1.04 | 0.699 | 0.495 | 1.35 | 0.745
22 | 0.439 | 0.381 | 0.769 | IIQRAYRRHLL [SCN1A_Y1926] | 0.497 | 0.433 | 0.608 | 0.509 | 0.576 | 0.525 | 0.584 | 0.845 | 0.491 | 0.479 | 0.499 | 0.619 | 0.552
23 | 1.47 | 1.59 | 1.77 | IIRQLYLKWHP [SACS_Y4333_R4331Q] | 0.4 | 0.444 | 1.08 | 0.38 | 1.12 | 0.604 | 0.509 | 0.888 | 1.01 | 0.469 | 0.473 | 1.02 | 0.608
24 | 0.452 | 0.906 | 0.799 | IITDFYVDMKF [MPP4_Y567_V562I_YF] | 0.953 | 1.08 | 0.511 | 0.527 | 0.722 | 1.39 | 0.58 | 1.31 | 1.75 | 1.41 | 1.37 | 1.66 | 0.905
25 | 1.1 | 1.27 | 1.47 | ILIFHYAKGQP [MPZ_Y82_S78L] | 0.819 | 0.705 | 0.475 | 0.504 | 0.674 | 0.85 | 0.508 | 1.32 | 1.01 | 0.753 | 0.612 | 1.37 | 0.904
26 | 0.87 | 0.864 | 0.948 | INMKKYCKKDY [NTN1_Y490] | 0.434 | 0.298 | 0.402 | 0.391 | 0.461 | 0.592 | 0.401 | 0.626 | 0.698 | 0.424 | 0.45 | 0.912 | 0.824
27 | 0.514 | 0.707 | 0.907 | IRQDDYESLKE [MTR_Y921_H920D] | 0.463 | 0.553 | 0.474 | 0.455 | 0.571 | 0.608 | 0.533 | 1.32 | 1.13 | 0.633 | 0.5 | 1.15 | 1
28 | 5.48 | 0.765 | 0.951 | IRQGHYESLKE [MTR_Y921_D919G] | 0.652 | 0.34 | 0.457 | 0.466 | 0.519 | 0.567 | 0.45 | 0.573 | 0.85 | 0.392 | 0.419 | 0.768 | 0.443
29 | 0.406 | 0.529 | 1.33 | ISIFFYAKGQP [MPZ_Y82_H81Y_YF] | 0.554 | 0.611 | 0.527 | 0.395 | 0.573 | 0.865 | 0.548 | 1.33 | 1.43 | 0.608 | 0.544 | 1.52 | 1.25
